Assay results published in the supplement of paper PMC10065799, “High-throughput profiling of sequence recognition by tyrosine kinases and SH2 domains using bacterial peptide display” (eLife, 2023).

Legend:
[1] = target: FGFR3 (UniProt P22607); assay: phosphorylation enrichment, bacterial display (enrichment ratio); higher = better substrate or ligand; peptides without Tyr show the background
[2] = test system: AncSZ; assay: as above
[3] = target: EPHB2 (UniProt P29323); assay: as above
[4] = target: FGFR1 (UniProt P11362); assay: as above
Sequence of FGFR1 (P11362 whole entry, looked up): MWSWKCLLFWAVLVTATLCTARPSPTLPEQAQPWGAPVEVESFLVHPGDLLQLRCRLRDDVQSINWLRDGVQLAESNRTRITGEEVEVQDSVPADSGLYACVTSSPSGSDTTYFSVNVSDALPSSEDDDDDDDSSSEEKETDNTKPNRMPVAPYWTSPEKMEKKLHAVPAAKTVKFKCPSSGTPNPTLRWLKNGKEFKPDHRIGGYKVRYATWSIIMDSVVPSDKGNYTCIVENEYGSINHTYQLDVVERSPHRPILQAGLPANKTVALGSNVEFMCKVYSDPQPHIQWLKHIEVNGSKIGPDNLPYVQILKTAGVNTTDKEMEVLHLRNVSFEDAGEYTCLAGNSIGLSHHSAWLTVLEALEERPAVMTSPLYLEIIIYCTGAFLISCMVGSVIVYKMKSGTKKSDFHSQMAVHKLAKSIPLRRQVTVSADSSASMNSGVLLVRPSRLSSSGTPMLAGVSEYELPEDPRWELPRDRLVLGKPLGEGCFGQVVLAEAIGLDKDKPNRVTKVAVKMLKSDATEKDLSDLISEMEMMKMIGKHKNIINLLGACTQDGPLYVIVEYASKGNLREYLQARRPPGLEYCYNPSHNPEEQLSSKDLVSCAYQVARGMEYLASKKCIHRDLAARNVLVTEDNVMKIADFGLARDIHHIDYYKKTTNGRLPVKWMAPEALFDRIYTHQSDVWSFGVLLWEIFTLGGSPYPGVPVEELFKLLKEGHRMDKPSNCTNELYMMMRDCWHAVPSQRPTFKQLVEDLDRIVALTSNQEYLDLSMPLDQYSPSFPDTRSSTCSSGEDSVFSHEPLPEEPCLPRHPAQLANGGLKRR

[5] = target: Fyn (UniProt P06241); assay: as above
Sequence of Fyn (P06241 whole entry, looked up): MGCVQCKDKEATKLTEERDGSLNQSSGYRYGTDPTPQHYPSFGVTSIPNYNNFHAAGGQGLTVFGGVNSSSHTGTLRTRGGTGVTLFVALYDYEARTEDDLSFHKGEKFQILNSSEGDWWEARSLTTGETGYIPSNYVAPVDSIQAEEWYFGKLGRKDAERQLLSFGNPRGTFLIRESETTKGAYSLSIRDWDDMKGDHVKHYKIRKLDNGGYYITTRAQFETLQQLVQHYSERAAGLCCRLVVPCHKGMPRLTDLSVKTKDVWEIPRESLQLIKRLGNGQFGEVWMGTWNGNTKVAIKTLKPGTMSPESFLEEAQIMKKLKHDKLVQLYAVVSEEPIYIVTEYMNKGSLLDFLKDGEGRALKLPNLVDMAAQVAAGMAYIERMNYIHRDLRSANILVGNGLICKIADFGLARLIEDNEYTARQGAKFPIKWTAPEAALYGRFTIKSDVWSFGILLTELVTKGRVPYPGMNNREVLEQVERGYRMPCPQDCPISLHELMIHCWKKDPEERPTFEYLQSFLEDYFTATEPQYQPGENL

[6] = target: Fes (UniProt P07332); assay: as above
[7] = test system: c-Src; assay: as above
[8] = target: MERTK (UniProt Q12866); assay: as above
[9] = target: Jak2 (UniProt O60674); assay: as above
Sequence of Jak2 (O60674 whole entry, looked up): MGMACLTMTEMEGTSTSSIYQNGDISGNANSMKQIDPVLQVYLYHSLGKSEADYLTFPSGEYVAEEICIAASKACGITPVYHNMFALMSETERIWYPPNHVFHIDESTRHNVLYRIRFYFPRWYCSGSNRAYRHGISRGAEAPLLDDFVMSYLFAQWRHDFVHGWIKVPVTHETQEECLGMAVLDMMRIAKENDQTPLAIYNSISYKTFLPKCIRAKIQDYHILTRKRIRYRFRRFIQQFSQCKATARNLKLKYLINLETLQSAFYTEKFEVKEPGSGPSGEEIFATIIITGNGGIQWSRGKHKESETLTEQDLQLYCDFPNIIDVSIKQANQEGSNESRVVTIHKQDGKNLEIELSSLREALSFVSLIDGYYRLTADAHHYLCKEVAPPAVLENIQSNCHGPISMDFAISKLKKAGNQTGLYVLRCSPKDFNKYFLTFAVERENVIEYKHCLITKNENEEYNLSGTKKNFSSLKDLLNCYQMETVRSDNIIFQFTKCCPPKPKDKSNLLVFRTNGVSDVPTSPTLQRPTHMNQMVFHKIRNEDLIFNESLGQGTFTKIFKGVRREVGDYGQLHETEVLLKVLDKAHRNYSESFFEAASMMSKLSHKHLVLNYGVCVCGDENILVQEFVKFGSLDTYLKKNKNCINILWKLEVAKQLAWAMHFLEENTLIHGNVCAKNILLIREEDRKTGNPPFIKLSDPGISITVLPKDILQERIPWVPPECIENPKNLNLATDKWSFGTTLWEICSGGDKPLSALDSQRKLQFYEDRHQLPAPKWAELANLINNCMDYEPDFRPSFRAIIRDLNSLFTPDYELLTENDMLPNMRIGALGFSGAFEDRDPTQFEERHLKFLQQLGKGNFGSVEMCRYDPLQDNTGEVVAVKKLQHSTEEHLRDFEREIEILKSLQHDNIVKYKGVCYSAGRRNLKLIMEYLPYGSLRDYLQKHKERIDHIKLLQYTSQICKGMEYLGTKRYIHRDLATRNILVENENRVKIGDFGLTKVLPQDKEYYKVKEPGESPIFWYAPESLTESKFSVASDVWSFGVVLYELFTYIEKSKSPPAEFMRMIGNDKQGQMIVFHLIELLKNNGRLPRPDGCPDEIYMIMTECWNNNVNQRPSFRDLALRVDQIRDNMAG

[10] = test system: c-Abl (mouse); assay: as above
[11] = target: Hck (UniProt P08631); assay: as above
Sequence of Hck (P08631 whole entry, looked up): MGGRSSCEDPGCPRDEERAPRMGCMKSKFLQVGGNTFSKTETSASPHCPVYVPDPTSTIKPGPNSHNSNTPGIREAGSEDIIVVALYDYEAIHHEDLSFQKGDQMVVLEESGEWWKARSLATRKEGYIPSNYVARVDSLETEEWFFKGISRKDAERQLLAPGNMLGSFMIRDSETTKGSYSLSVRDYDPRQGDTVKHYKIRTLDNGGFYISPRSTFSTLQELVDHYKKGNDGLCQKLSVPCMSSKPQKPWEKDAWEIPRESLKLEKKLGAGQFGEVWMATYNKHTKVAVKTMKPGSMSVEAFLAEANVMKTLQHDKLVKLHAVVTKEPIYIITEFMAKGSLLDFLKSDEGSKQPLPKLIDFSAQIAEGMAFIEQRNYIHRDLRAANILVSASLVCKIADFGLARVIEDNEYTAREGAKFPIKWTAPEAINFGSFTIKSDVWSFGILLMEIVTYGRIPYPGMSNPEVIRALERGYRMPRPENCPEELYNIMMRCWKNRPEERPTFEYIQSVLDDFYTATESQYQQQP

[12] = test system: Fer (mouse); assay: as above
[13] = target: EPHB1 (UniProt P54762); assay: as above
[14] = target: SHP2-C SH2; assay: SH2 binding enrichment of the phosphorylated peptide, bacterial display (enrichment ratio); higher = better substrate or ligand; peptides without Tyr show the background
[15] = target: c-Src SH2; assay: as above
[16] = target: Grb2 SH2 (UniProt P62993); assay: as above
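For SH2 binding enrichment of the phosphorylated peptide, bacterial display in this document: peptide library displayed on the E. coli surface as eCPX fusions, selected cells deep-sequenced, score is each peptide's frequency after selection divided by its frequency in the input.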
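For phosphorylation enrichment, bacterial display in this document: 11-residue human phosphosite peptides and single-mutation variants displayed on the E. coli surface, counted by deep sequencing, each peptide's frequency after selection divided by its frequency in the unselected input library; frequency after pTyr selection over input frequency; kinase dosed for 20-30% of maximal phosphorylation in three min.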

Sequence of FGFR3 (P22607 whole entry, looked up): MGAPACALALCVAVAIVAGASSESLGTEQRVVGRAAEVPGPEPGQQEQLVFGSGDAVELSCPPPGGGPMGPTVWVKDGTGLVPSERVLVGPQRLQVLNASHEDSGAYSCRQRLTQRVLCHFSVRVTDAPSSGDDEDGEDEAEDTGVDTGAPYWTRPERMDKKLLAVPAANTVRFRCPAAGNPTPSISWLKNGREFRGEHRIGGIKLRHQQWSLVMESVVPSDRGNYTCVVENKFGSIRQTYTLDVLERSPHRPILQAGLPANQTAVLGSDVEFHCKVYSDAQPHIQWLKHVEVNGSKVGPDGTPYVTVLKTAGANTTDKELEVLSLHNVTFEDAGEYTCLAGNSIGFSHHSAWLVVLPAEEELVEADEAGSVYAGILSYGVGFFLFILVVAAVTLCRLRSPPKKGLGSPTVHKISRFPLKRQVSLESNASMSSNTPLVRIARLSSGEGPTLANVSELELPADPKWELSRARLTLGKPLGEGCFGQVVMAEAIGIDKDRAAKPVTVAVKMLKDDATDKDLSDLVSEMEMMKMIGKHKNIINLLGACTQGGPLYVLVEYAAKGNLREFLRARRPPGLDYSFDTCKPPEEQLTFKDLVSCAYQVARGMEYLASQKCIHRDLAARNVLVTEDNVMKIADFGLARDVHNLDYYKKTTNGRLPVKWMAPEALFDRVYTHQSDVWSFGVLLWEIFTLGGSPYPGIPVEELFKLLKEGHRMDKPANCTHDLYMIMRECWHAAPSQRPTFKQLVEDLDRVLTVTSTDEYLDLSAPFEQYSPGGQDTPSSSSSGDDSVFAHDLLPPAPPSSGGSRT
Sequence of EPHB2 (P29323 whole entry, looked up): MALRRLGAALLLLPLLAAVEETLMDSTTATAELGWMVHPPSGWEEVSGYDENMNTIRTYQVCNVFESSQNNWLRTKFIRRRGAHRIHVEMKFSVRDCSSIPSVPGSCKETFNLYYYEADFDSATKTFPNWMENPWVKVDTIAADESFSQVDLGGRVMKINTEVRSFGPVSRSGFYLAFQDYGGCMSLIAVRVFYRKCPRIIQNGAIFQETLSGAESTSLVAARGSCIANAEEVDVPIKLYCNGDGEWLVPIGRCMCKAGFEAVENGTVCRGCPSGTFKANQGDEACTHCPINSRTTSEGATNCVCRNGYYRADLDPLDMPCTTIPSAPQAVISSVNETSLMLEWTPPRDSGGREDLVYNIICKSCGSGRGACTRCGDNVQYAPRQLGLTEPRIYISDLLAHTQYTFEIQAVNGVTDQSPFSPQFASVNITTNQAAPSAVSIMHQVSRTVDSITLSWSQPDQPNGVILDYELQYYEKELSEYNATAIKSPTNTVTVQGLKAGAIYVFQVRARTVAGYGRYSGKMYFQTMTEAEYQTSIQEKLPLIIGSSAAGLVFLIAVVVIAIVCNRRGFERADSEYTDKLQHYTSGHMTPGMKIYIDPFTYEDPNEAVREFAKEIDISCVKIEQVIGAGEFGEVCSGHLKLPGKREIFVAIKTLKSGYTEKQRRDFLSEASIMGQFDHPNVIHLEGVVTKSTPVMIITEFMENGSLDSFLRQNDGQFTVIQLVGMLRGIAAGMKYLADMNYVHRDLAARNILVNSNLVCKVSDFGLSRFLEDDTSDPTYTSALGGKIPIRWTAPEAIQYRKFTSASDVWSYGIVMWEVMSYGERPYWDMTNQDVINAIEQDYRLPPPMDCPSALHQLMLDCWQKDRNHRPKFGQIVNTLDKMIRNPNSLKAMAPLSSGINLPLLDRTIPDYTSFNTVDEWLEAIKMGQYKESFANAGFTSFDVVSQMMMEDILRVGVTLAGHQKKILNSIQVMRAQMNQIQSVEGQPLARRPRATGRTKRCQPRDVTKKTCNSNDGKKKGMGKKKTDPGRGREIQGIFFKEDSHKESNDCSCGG

Row | Sequence | SH2 binding enrichment [14] | SH2 binding enrichment [15] | SH2 binding enrichment [16] | phosphorylation enrichment [1] | phosphorylation enrichment [2] | phosphorylation enrichment [3] | phosphorylation enrichment [4] | phosphorylation enrichment [5] | phosphorylation enrichment [6] | phosphorylation enrichment [7] | phosphorylation enrichment [8] | phosphorylation enrichment [9] | phosphorylation enrichment [10] | phosphorylation enrichment [11] | phosphorylation enrichment [12] | phosphorylation enrichment [13]
1 | DLDLTYIFPNI [PTEN_Y27_YF] | 0.547 | 0.329 | 0.738 | 2.77 | 4.58 | 1.15 | 3.31 | 6.27 | 1.34 | 3.89 | 3.52 | 2.57 | 1.17 | 1.76 | 0.56 | 2.03
2 | DMGAQYAAASR [ARID1B_Y483_P488R] | 0.553 | 0.612 | 0.761 | 0.396 | 0.575 | 0.375 | 0.357 | 0.37 | 0.54 | 0.365 | 0.31 | 0.49 | 0.644 | 0.402 | 0.393 | 0.371
3 | DPFHVYIKNRV [KCNE3_Y95_YF] | 0.936 | 0.604 | 1.13 | 0.764 | 1.27 | 0.464 | 0.455 | 0.415 | 1.19 | 0.31 | 0.369 | 1.08 | 0.692 | 0.437 | 0.486 | 0.604
4 | DSFWSYCNAVA [SLC20A2_Y436_S434W_YF] | 0.637 | 0.583 | 1.05 | 0.805 | 1.45 | 0.67 | 0.65 | 0.527 | 1.31 | 0.443 | 0.421 | 1.19 | 0.745 | 0.569 | 0.57 | 0.76
5 | DSYWSYCNAVA [SLC20A2_Y436_S434W] | 0.649 | 0.817 | 1.02 | 2.42 | 1.43 | 1.93 | 4.16 | 5.46 | 1.12 | 4.44 | 0.952 | 1.27 | 1.45 | 3.31 | 0.644 | 2.64
6 | DTLMEYLENPK [CYCS_Y68] | 0.872 | 0.502 | 0.915 | 0.905 | 1.51 | 0.682 | 0.511 | 0.484 | 1.49 | 0.562 | 0.529 | 1.28 | 0.95 | 0.69 | 0.677 | 0.672
7 | DVLEFYNSKKT [PAK1_Y131] | 0.576 | 0.752 | 0.731 | 0.718 | 1.08 | 0.544 | 0.856 | 0.525 | 1.38 | 0.504 | 0.405 | 1.11 | 0.925 | 0.518 | 1.13 | 0.517
8 | DVLVEYQGEGR [GNS_Y416] | 0.818 | 0.606 | 0.907 | 0.599 | 0.945 | 0.533 | 0.545 | 0.504 | 1.08 | 0.464 | 0.414 | 0.934 | 0.709 | 0.496 | 0.43 | 0.427
9 | EAIAKYDLKAT [GRB2_Y7_F9L] | 0.741 | 0.478 | 0.874 | 0.634 | 0.809 | 0.464 | 0.466 | 0.408 | 0.713 | 0.438 | 0.412 | 0.851 | 0.617 | 0.458 | 0.443 | 0.489
10 | EAKENYGKTLK [CHL1_Y291_T287A] | 0.503 | 0.432 | 0.754 | 0.441 | 0.655 | 0.314 | 0.456 | 0.338 | 0.732 | 0.424 | 0.327 | 0.52 | 0.495 | 0.328 | 0.305 | 0.348
11 | EDDIIYTQDFM [STK11_Y362_T367M] | 0.65 | 0.466 | 0.984 | 1.25 | 1.49 | 0.746 | 0.911 | 1.03 | 1.31 | 1.1 | 0.784 | 1.21 | 0.889 | 0.992 | 0.776 | 0.697
12 | EDGCIYPATIA [SMN1_Y109] | 0.671 | 0.589 | 0.927 | 0.727 | 1.07 | 0.562 | 0.546 | 0.587 | 1.37 | 0.539 | 0.545 | 1.1 | 0.87 | 0.577 | 0.513 | 0.744
13 | EDGRLYAVKCS [PKMYT1_Y136_R140C] | 0.714 | 0.473 | 0.795 | 0.66 | 0.972 | 0.609 | 0.513 | 0.589 | 1.12 | 0.63 | 0.549 | 0.861 | 0.82 | 0.792 | 0.529 | 0.594
14 | EEAAGYAQESQ [CAMKV_Y491] | 0.718 | 0.577 | 1.05 | 0.691 | 1.22 | 0.543 | 0.545 | 0.401 | 1.39 | 0.604 | 0.325 | 1.2 | 0.935 | 0.661 | 0.547 | 0.523
15 | EEEPVYKAEPE [HCLS1_Y360_E361K] | 0.509 | 0.569 | 0.797 | 0.891 | 1.06 | 0.525 | 0.597 | 0.675 | 1.49 | 0.717 | 0.518 | 1.36 | 0.826 | 0.595 | 0.576 | 0.573
16 | EEGENYQKGER [CHGB_Y173] | 0.602 | 0.436 | 0.816 | 0.731 | 0.921 | 0.571 | 0.509 | 0.518 | 1.15 | 0.463 | 0.425 | 0.963 | 0.797 | 0.467 | 0.518 | 0.53

Continued, in another order:

Row | SH2 binding enrichment [14] | SH2 binding enrichment [15] | SH2 binding enrichment [16] | Sequence | phosphorylation enrichment [1] | phosphorylation enrichment [2] | phosphorylation enrichment [3] | phosphorylation enrichment [4] | phosphorylation enrichment [5] | phosphorylation enrichment [6] | phosphorylation enrichment [7] | phosphorylation enrichment [8] | phosphorylation enrichment [9] | phosphorylation enrichment [10] | phosphorylation enrichment [11] | phosphorylation enrichment [12] | phosphorylation enrichment [13]
17 | 0.629 | 0.506 | 0.846 | DLEKTYNTFRS [B4GALNT2_Y538_A533D_YF] | 0.55 | 0.656 | 0.319 | 0.431 | 0.967 | 0.851 | 1.75 | 0.291 | 0.736 | 0.523 | 0.734 | 0.391 | 0.445
18 | 0.814 | 0.813 | 0.876 | DLNATYRTIQG [U2SURP_Y634] | 0.6 | 0.631 | 0.751 | 0.583 | 0.646 | 0.846 | 0.674 | 0.473 | 0.609 | 0.641 | 0.688 | 0.518 | 0.578
19 | 0.561 | 0.448 | 0.825 | DLQDEYDFKCK [STAT1_Y170] | 0.772 | 1.28 | 0.702 | 0.668 | 0.543 | 1.31 | 0.546 | 0.538 | 1.19 | 0.877 | 0.766 | 0.555 | 0.598
20 | 0.647 | 0.55 | 0.982 | DLTQDYEEWKR [ORC6_Y232] | 0.862 | 1.8 | 0.882 | 0.509 | 0.707 | 1.47 | 0.696 | 0.526 | 1.28 | 0.84 | 0.845 | 0.715 | 0.796
21 | 0.491 | 0.429 | 0.775 | DNEFAYLKAII [HNF4A_Y288_YF] | 0.648 | 1.13 | 0.455 | 0.425 | 0.386 | 1.07 | 0.419 | 0.334 | 0.91 | 0.689 | 0.407 | 0.381 | 0.45
22 | 0.636 | 0.828 | 0.659 | DNPAKYFILEN [DPP10_Y512_S517N] | 0.617 | 1.03 | 0.456 | 0.557 | 0.459 | 1.2 | 0.495 | 0.509 | 1.41 | 0.935 | 0.392 | 0.531 | 0.59
23 | 0.67 | 0.577 | 0.829 | DSIRDYEDGTE [CLNS1A_Y214_M218T] | 0.988 | 1.55 | 0.565 | 0.511 | 0.602 | 1.58 | 1.1 | 0.959 | 1.35 | 1.02 | 0.57 | 0.766 | 0.784
24 | 0.611 | 0.599 | 0.836 | DTERIYDDDFF [UBA1_Y560] | 0.876 | 1.36 | 0.62 | 0.605 | 0.748 | 1.41 | 0.736 | 0.702 | 1.63 | 1.01 | 0.668 | 0.995 | 0.661
25 | 0.578 | 0.909 | 0.93 | DTVRIYDDDFF [UBA1_Y560_E557V] | 0.642 | 1.28 | 0.626 | 0.602 | 0.555 | 1.24 | 0.522 | 0.592 | 1.27 | 0.726 | 0.538 | 0.619 | 0.777
26 | 0.581 | 0.388 | 0.74 | DYYDLYGGKKF [PTPN11_Y66_E69K] | 9.68 | 1.31 | 1.22 | 11.5 | 3.27 | 0.825 | 3.05 | 1.21 | 0.971 | 0.698 | 5.9 | 0.421 | 1.89
27 | 0.781 | 0.462 | 0.893 | EAGKVYLKAAM [CBFB_Y96_P100A] | 0.742 | 1.03 | 0.484 | 0.674 | 0.408 | 1.26 | 0.449 | 0.333 | 1.26 | 0.775 | 0.494 | 0.568 | 0.565
28 | 0.645 | 0.534 | 1.07 | EALDFCGEVRT [PTEN_Y155_Y155C] | 1.09 | 1.31 | 0.691 | 0.803 | 0.583 | 1.48 | 0.545 | 0.482 | 1.41 | 0.984 | 0.642 | 0.674 | 0.882
29 | 0.544 | 0.436 | 0.812 | EDASEYFENFI [PARP4_Y214_F215Y_YF] | 1.58 | 2.37 | 0.806 | 1.48 | 0.613 | 1.47 | 0.618 | 0.58 | 1.39 | 1.07 | 0.624 | 0.598 | 0.798
